Assay results as given in patent US20110129485A1 (UNIVERSITY OF QUEENSLAND, published 2011).

Molecular target: T1, bovine serum albumin (BSA) (bovine, UniProt P02769 25-607)
T1 construct: Control protein for non-specific adsorption to the ASF-SPR chip
Assay: SPR, ASF-immobilised chip, BSA in solution
Experimental: The ASF-SPR chip was prepared starting with a 50 nm gold-coated SF10 glass substrate. The first SAM layer was self-assembled using a mixed ethanolic solution of 5×10⁻⁵ M cysteamine (NH₂ terminated thiol) (Sigma-Aldrich, Sydney, Australia) and 4.5×10⁻⁴ M mercaptoethanol (OH terminated thiol, as spacers) (Sigma-Aldrich, Sydney, Australia) for 15 h at room temperature. The second layer of biotin was introduced by coupling biotin-hexanoic acid (Sigma-Aldrich, Sydney, Australia) with cysteamine by activating 1 mg/ml biotin-hexanoic acid in PBS (prepared from a 6 mg/mL stock in dimethylformamide (DMF, Sigma-Aldrich, Sydney, Australia) with 4 mg/mL of 1-(3-dimethylaminopropy)-3-ethylcarbodiimide hydrochloride (EDC, Sigma-Aldrich, Sydney, Australia) and 0.7 mg/mL of N-hydroxysuccinimide (NHS, Sigma-Aldrich, Sydney, Australia). The third layer (of SA) was constructed by loading 45 μg/mL of SA (Invitrogen, Mount Waverley, Australia) into the flow cell, which specifically binds to biotin. This step took about 10 min to reach equilibrium. The SA layer was then activated by 4 mg/mL EDC and 0.7 mg/mL NHS for 5 min, enabling its carboxylic acid residue to react with the primary amino group of ASF (Sigma-Aldrich, Sydney, Australia). 1.0 mg/mL ASF was used in this step to prepare the fourth layer. […]

T1 sequence (P02769 25-607 limits assumed): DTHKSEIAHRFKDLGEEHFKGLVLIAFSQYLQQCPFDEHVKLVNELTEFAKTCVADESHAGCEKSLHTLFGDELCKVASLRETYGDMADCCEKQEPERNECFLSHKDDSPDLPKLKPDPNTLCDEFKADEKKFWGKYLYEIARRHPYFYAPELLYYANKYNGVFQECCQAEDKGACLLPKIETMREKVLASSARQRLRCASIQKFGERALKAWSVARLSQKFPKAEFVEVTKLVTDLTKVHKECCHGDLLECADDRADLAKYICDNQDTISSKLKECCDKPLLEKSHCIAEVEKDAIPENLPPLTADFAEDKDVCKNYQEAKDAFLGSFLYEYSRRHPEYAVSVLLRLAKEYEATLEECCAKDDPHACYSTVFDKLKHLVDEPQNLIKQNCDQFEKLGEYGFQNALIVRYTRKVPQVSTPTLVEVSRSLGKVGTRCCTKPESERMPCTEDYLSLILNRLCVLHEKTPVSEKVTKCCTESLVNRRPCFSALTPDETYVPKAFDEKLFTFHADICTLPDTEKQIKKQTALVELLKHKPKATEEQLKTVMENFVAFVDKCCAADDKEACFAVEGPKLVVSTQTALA

B1: asialofetuin (ASF) (other, UniProt P12763 19-359, looked up)
chain: IPLDPVAGYKEPACDDPDTEQAALAAVDYINKHLPRGYKHTLNQIDSVKVWPRRPTGEVYDIEIDTLETTCHVLDPTPLANCSVRQQTQHAVEGDCDIHVLKQDGQFSVLFTKCDSSPDSAEDVRKLCPDCPLLAPLNDSRVVHAVEVALATFNAESNGSYLQLVEISRAQFVPLPVSVSVEFAVAATDCIAKEVVDPTKCNLLAEKQYGFCKGSVIQKALGGEDVRVTCTLFQTQPVIPQPQPDGAEAEAPSAVPDAAGPTPSAAGPPVASVVVGPSVVAVPLPLHRAHYDLRHTFSGVASVESSSGEAFHVGKTPIVGQPSIPGGPVRLCPGRIRYFKI
modifications: three triantennary N-link oligosaccharide chains with terminal N-acetyllactosamine (LacNAC) residues and three O-linked disaccharide chains (desialylated)
notes: Immobilised on a home-made SPR chip (thiol-SAM/biotin/streptavidin/ASF) by EDC/NHS coupling to streptavidin; also called asiolofetuin
binding result: no binding (tested: 4.4 mg/mL)
